Paper PMC6180485, “Elongation/Termination Factor Exchange Mediated by PP1 Phosphatase Orchestrates Transcription Termination” (Cell Reports, 2018)
Non-standard residues stand in square brackets, D forms with d. No end group written: not given here. pS = N[C@@H](COP(=O)(O)O)C(=O)O; FAM = 5'-fluorescein amidite

B2: S. cerevisiae Nrd1 CID1-152 (domain or fragment)
chain: MQQDDDFQNFVATLESFKDLKSGISGSRIKKLTTYALDHIDIESKIISLIIDYSRLCPDSHKLGSLYIIDSIGRAYLDETRSNSNSSSNKPGTCAHAINTLGEVIQELLSDAIAKSNQDHKEKIRMLLDIWDRSGLFQKSYLNAIRSKCFAM
B4: Full-length Seb1 with C-terminal His8-tag (natural protein, S. pombe, UniProt Q9UTE3 1-620, looked up)
chain: MSGIAEFDGILDSLEHSKTGISGSKILKLTNLSMENVSENAQFVASVYKYAKRAPVTHKLGALYILDSIVRSFQDGAKKNNESFENPVDASFSGGWCKAAEITDSLVADAIQHAPSAHLPKILKLCDIWEKASTFPPEKLESLRSKLKDAMASTEPVSVDSAAAPSQSTNPEGNGGSVGSQAAAPTSRPVENDAASILEALAAFAQKAPVPSAAEESVSTPPQPAVAPSVSAVVPNLPVHPATAINAQSQSGNPLSNPLFQPSNVPQSIPSGPMGMKTGSVNDTQSQQITLMNVLASQNVPPAQIDSIMKAAFPNYNAPFQPAGVGSVPLPAPTSSQSLRLGSLHRSRSPSPRSGRPRRSPSPSHLSIPSTLPPADGVPKPTPDGFPRRFERDPTIPPDSIKVYSRTLFLGGITRSVREPVLRSMFERFGSVQSLILNHNYRHGFLKMFRRDAAEKAQVAMENVPFADTTIRTKWGVGFGPRECSDFSTGISVIPIRLLTDADRTWLVTAEYGGTGGLPITPGIALDEPDIEIGLGISSKAISKRGKDFAMRRDERFRGRKPYRGGPPIHHGERHFDSGNDWHGNPSTVPPPTNPYNPGYPYMDPNYSSGYVSQPPWQPQ
notes: Seb1, S. pombe, full length; fractions containing monomeric Seb1 were used; also called Seb1(full-length)-His8; recombinant Seb1; source: E. coli Rosetta, purified (Ni-NTA, Superdex 200); not shown: His8, C-terminal, kept
B5: S. pombe Seb1 CID1-148 (domain or fragment)
chain: MSGIAEFDGILDSLEHSKTGISGSKILKLTNLSMENVSENAQFVASVYKYAKRAPVTHKLGALYILDSIVRSFQDGAKKNNESFENPVDASFSGGWCKAAEITDSLVADAIQHAPSAHLPKILKLCDIWEKASTFPPEKLESLRSKLK
B7: S. cerevisiae Rtt103 CID (domain or fragment)
chain: MPFSSEQFTTKLNTLEDSQESISSASKWLLLQYRDAPKVAEMWKEYMLRPSVNTRRKLLGLYLMNHVVQQAKGQKIIQFQDSFGKVAAEVLGRINQEFPRDLKKKLSRVVNILKERNIFSKQVVNDIERSLKTESSPVEALVLPQKLKDFAKDYEKLVKMHH

How the values were obtained:
[1] = target: B4; assay: cross-linking; BS3 lysine-lysine cross-linking of reconstituted Seb1:Pol II (6:1 or 4:1 molar ratio) in CB buffer (50 mM HEPES pH 7.6, 150 mM NaCl), 30 min at 4 °C, mass spectrometry (pLink); details: both partners purified
[2] = target: T1, Double-repeated Ser5P (Schizosaccharomyces pombe); assay: FP
T1 chain: {FAM}-YSPT[pS]PSYSPT[pS]PS

[3] = target: T2, Rpb2, subunit of S. pombe Pol II (S. pombe, UniProt Q02061 1-1210); assay: cross-linking; BS3 lysine-lysine cross-linking of reconstituted Seb1:Pol II (6:1 or 4:1 molar ratio) in CB buffer (50 mM HEPES pH 7.6, 150 mM NaCl), 30 min at 4 °C, mass spectrometry (pLink); details: both partners purified
T2 construct: Rpb2, RNA polymerase II subunit, S. pombe; stood in the assay as a subunit of m11; source: endogenous, S. pombe (Rpb9-Flag strain), purified as part of Pol II (anti-Flag M2 agarose, HiTrap Q)
T2 sequence (Q02061 whole entry): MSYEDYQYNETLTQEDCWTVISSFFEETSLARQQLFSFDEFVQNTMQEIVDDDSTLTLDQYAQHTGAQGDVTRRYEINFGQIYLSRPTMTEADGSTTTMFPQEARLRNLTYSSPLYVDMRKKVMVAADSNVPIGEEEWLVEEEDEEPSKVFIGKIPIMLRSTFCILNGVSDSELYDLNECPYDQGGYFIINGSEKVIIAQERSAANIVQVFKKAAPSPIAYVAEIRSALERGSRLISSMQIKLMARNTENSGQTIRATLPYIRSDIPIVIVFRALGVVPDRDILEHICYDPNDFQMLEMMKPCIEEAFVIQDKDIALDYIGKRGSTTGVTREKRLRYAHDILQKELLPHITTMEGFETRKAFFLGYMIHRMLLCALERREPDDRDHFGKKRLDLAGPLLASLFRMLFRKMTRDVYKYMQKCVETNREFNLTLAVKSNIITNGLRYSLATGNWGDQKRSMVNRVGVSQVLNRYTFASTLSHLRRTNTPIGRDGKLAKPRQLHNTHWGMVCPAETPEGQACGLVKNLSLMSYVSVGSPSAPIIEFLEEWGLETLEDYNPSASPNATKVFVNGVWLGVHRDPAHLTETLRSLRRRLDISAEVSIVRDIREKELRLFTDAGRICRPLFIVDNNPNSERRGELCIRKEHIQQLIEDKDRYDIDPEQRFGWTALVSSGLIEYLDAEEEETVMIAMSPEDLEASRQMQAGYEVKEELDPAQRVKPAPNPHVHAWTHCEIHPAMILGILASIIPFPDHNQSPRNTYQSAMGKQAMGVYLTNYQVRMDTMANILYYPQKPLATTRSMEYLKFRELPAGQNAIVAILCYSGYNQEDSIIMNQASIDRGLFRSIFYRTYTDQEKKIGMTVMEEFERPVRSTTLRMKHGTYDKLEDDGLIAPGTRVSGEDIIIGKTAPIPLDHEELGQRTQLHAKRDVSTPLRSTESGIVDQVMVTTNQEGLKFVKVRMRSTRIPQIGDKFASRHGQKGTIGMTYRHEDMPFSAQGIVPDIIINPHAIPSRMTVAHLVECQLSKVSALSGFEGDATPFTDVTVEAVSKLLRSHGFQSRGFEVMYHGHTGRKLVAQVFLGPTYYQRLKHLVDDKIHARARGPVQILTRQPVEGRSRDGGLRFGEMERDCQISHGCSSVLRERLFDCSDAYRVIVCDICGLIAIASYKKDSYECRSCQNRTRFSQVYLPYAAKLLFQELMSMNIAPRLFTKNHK

[4] = target: T3, Rpb1, subunit of S. pombe Pol II (S. pombe, UniProt P36594 1-1752, CTD phosphorylated (Thr4P, Tyr1P, Ser2P, Ser5P detected by western blot)); assay: as above; details: both partners purified
T3 construct: Rpb1, largest subunit of RNA polymerase II, S. pombe; stood in the assay as a subunit of m11; source: endogenous, S. pombe (Rpb9-Flag strain), purified as part of Pol II (anti-Flag M2 agarose)
T3 sequence (P36594 whole entry): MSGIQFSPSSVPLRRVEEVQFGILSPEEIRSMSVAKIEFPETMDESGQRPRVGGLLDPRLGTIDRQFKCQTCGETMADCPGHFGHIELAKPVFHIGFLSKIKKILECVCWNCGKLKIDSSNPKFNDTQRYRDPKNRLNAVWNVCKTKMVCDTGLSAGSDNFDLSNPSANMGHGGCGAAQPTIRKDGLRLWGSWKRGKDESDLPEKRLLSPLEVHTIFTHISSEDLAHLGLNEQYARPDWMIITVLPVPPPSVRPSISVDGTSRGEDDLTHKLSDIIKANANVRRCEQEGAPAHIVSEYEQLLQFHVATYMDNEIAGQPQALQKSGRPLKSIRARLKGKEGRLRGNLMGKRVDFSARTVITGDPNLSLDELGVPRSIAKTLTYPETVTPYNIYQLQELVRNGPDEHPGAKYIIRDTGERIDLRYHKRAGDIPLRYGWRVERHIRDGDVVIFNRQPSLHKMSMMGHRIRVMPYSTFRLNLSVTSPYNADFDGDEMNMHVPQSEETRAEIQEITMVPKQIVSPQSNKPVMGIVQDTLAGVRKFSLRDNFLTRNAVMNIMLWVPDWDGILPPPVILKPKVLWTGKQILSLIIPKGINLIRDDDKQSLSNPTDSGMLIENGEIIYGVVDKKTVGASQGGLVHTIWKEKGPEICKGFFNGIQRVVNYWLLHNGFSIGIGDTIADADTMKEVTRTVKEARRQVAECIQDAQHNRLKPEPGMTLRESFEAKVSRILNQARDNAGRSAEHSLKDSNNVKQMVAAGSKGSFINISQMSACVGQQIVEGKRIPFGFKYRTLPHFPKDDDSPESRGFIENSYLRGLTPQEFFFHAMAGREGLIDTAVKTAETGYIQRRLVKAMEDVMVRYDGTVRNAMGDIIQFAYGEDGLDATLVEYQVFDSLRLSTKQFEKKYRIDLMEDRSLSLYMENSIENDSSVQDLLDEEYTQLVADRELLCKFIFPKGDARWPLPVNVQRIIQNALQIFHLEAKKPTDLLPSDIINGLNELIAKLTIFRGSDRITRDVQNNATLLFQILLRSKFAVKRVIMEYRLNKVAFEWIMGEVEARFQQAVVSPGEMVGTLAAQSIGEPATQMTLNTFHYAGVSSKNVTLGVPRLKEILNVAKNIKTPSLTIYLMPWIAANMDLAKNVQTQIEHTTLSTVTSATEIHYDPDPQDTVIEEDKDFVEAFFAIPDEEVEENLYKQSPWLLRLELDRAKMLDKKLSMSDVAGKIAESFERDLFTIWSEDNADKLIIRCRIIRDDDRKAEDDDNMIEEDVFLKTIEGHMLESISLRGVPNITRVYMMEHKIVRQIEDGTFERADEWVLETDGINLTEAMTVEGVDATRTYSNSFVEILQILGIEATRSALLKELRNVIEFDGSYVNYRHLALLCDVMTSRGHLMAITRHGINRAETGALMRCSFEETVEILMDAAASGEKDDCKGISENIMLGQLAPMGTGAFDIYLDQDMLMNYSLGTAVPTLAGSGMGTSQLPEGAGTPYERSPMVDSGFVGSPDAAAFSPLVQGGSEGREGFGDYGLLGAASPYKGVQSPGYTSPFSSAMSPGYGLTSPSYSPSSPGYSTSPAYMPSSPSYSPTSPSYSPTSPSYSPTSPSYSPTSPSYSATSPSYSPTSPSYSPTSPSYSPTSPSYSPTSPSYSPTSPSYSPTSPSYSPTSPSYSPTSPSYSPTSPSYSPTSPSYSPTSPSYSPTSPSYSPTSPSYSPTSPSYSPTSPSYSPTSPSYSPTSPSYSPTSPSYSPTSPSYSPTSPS

[5] = target: B5; assay: FP
[6] = target: T4, S. pombe Pcf11 CID1-139 with an N-terminal His6-SUMO tag (S. pombe); assay: FP
T4 chain: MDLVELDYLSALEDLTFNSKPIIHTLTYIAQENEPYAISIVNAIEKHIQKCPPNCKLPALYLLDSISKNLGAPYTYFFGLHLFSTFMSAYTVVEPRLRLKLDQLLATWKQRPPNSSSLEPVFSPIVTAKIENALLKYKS

[7] = target: B2; assay: FP
[8] = target: B7; assay: FP
[9] = target: T5, S. cerevisiae Pcf11 CID1-144 (S. cerevisiae, UniProt P39081 1-144); assay: FP
T5 chain: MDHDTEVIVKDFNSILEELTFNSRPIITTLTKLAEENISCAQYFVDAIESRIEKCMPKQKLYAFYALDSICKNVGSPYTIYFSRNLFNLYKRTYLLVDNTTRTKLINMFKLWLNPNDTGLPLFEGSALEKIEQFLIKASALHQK

B1: Rpb4, subunit of S. pombe Pol II (natural protein, UniProt O74825 1-135, looked up)
chain: MPRAIFEEDAAQLKLGPEFENEDMLTVSEAKILIETVLAQRARETNGEIPMTDVMKKTVAYFNVFARFKTAEATYACERILGNRFHKFERAQLGTLCCEDAEEARTLIPSLANKIDDQNLQGILDELSTLRKFQD
notes: Rpb4, RNA polymerase II subunit, S. pombe; stood in the assay as a subunit of m11; source: endogenous, S. pombe (Rpb9-Flag strain), purified as part of Pol II (anti-Flag M2 agarose, HiTrap Q)
- binding result [1]: binds

Binder: B2
- Kd [2]: 65.8 µM

B3: Rpb7, subunit of S. pombe Pol II (natural protein, UniProt O14459 1-172, looked up)
chain: MPFFLKELSLTISLHPSYFGPRMQDYLKAKLLADVEGTCSGQYGYIICVLDSNTIDIDKGRVVPGQGFAEFEVKYRAVLWRPFRGEVVDAIVTTVNKMGFFANIGPLNVFVSSHLVPPDMKFDPTANPPNYSGEDQVIEKGSNVRLKIVGTRTDATEIFAIATMKEDYLGVL
notes: Rpb7, RNA polymerase II subunit, S. pombe; stood in the assay as a subunit of m11; source: endogenous, S. pombe (Rpb9-Flag strain), purified as part of Pol II (anti-Flag M2 agarose, HiTrap Q)
- binding result [1]: binds

Binder: B4
- binding result [3]: binds
- binding result [4]: binds

Binder: B5
- Kd [2]: 281 µM

B6: Rpc10, subunit of S. pombe Pol II (natural protein, UniProt P48011 1-63, looked up)
chain: MNHPTSTGGTAFNPPRPATMIYLCADCGARNTIQAKEVIRCRECGHRVMYKMRTKRMVQFEAR
notes: Rpc10, RNA polymerase subunit, S. pombe; stood in the assay as a subunit of m11; source: endogenous, S. pombe (Rpb9-Flag strain), purified as part of Pol II (anti-Flag M2 agarose, HiTrap Q)
- binding result [1]: binds

Binder: B7
- Kd [2]: > 1000 µM

B8: Rpb5, subunit of S. pombe Pol II (natural protein, UniProt Q09191 1-210, looked up)
chain: MSAEEKNIVRVFRAWKTAHQLVHDRGYGVSQAELDLTLDQFKAMHCGMGRNLDRTTLSFYAKPSNDSNKGTIYIEFAKEPSVGIKEMRTFVHTLGDHNHKTGILIYANSMTPSAAKIIATVTGQFTIETFQESDLIVNITHHELVPKHILLSPDEKKELLDRYKLRETQLPRIQLADPVARYLGLKRGEVVKIVRRSETSGRYNSYRICA
notes: Rpb5, RNA polymerase subunit, S. pombe; stood in the assay as a subunit of m11; source: endogenous, S. pombe (Rpb9-Flag strain), purified as part of Pol II (anti-Flag M2 agarose, HiTrap Q)
- binding result [1]: binds

Binder: {FAM}-YSPTSPSYSPTSPS (also: phospho-Ser2 of heptad, which repeat not given here) [FAM-labeled two-repeat CTD peptide, Ser2P]
- Kd [5]: 72.3 µM
- Kd [6]: 48.1 µM
- Kd [7]: 126 µM
- Kd [8]: 32.3 µM
- Kd [9]: 127 µM

B9: Rpb3, subunit of S. pombe Pol II (natural protein, UniProt P37382 1-297, looked up)
chain: MDSETHITIRNISKNSVDFVLTNTSLAVANSLRRVVLAEIPTVAIDLVEINVNTSVMPDEFLAHRLGMIPLDSSNIDEPPPVGLEYTRNCDCDQYCPKCSVELFLNAKCTGEGTMEIYARDLVVSSNSSLGHPILADPKSRGPLICKLRKEQEISLRCIAKKGIAKEHAKWSPTSAVAFEYDPWNKLQHTDYWFENDADAEWPKSKNADWEEPPREGEPFNFQEEPRRFYMDVESVGSIPPNEIMVQGLRILQEKLAVLVRDLDEEQPTQLSANELNMEENAEMNWSPYQNGEENTW
notes: Rpb3, RNA polymerase II subunit, S. pombe; stood in the assay as a subunit of m11; source: endogenous, S. pombe (Rpb9-Flag strain), purified as part of Pol II (anti-Flag M2 agarose, HiTrap Q)
- binding result [1]: binds
